Assay results taken from the supplement of paper PMC9170038.

Test system: MS2 coat protein
Assay: apparent KD of MS2 coat protein; designed switch direction (-1 OFF switch, 1 ON switch): -1; higher = weaker reporter binding
Procedure, shortened: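 Apparent KD, taken as the median over clusters for each design, was obtained by curve-fitting normalised cluster fluorescence. Designed RNA switches had been transcribed on Illumina chips by stalled E. coli RNA polymerase and titrated with SNAP-549-labelled MS2 coat protein, doubling from 0.7 or 1.5 nM to 3 µM.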

[1] = Eterna round: R95, input ligand: microRNA oligo, concentration not stated
[2] = Eterna round: R95, input ligand: FMN 200 uM
[3] = Eterna round: R95, input ligand: none
[4] = input ligand: microRNA oligo, concentration not stated

Row | Sequence | apparent KD of MS2 coat protein [1] | apparent KD of MS2 coat protein (input ligand: FMN 200 uM) | apparent KD of MS2 coat protein (input ligand: none) | also measured
1 | UUAAUAAGUGUGAGGAUAUGCUGGUCCUUGGAUCAGCAGAAGGCACAUGAGGAUCACCCAUGUACAAUAUAUUA [Mat - Exclusion 4 - JL Mod - D31] (puzzle: Brourd's mod of Exclusion 4) | 33.9 nM |  |  | 
2 | UAUAUGUGAGGAUAUCAGGUGUGCUAGCGAACUGGUACAUCUGAGAAGGCACAUGAGGAUCACCCAUGUAUCUU [Mat - Exclusion 4 - Mod of JL - D46] (puzzle: Exclusion 4) | 26.3 nM |  |  | 
3 | UGUAUACAUGAGGAUCACCCAUGUAAGGAUAUACAUCAGAUCGACACCGGACUGGCCCGUAGAAGGUGCGUGGA [Eternabot (L2) Solution 67] (Eterna round: R97, puzzle: Exclusion 1) |  | 24.9 nM | 24 nM | 
4 | UAUUAGCAAGCGAGAUCCCACAUGAGGAUCACCCAUGUAAAAGCAUCCAGAAUUACUGGGUGCAAAGCUCGUCUUAU [Winner reversed engineered 7] (Eterna round: R97, puzzle: Sensor, turn-off variant 1) |  | 30.1 nM | 24.8 nM | 
5 | AACAGUCUGGAGGAUAUGCUGGAUUAAUAUCUGGCAGAAGGCUGGACAUGAGGAUCACCCAUGUAAAUACUACC [Omei Ex6 A2] (Eterna round: R97, puzzle: Exclusion 6) |  | 55.2 nM | 21.5 nM | 
6 | UACUAAAAGGAGGAUAUCGUAUCGGAAACGAUACGAGAAGGCUUAACAUGAGGAUCACCCAUGUUCUUCAAUAA [Mat - Exclusion 6 - Eli Mod - D88] (puzzle: Exclusion 6) | 17.3 nM |  |  | apparent KD of MS2 coat protein [2]: 24.6 nM; apparent KD of MS2 coat protein [3]: 16.4 nM
7 | CGUCUGUAAGGAUAUGGUUGCAUCGACAUGAGGAUCACCCAUGUAACGUGGGACUAGUGAUUAGAAGGUACGAACG [EX5 #61] (Eterna round: R97, puzzle: Exclusion 5) |  | 110 nM | 133 nM | 
8 | GUACCAGAUGUCAGGAUAUGCUUUGAGAGUUGCGAGUAGAAGGGACAUGAGGAUCACCCAUGUACCUACAGGAA [BmEX4 B.30] (Eterna round: R97, puzzle: Brourd's mod of Exclusion 4) |  | 14.7 nM | 14 nM | 
9 | CGUUGAUGAGGAUAUCGAUGUUAGUACAUGAGGAUCACCCAUGUUAUCCAAGUGUCGUUUCGAGAAGGUAUUGGAC [LRO-Ex5-20] (puzzle: Exclusion 5) | 174 nM |  |  | 
10 | GUCAGCUCGUCAGGAUAUAUUAACAUGAGGAUCACCCAUGUAAGAUCAGGCUUCGGCCAAUGUUAAUAGAAGGGACGAGCUGAC [ENG2/12-B1] (Eterna round: R96, puzzle: Exclusion NG 2) |  | 132 nM | 438 nM | apparent KD of MS2 coat protein [4]: 745 nM
11 | GUUAUCGCAGGAUAUUAGUACUUGUACAUGAGGAUCACCCAUGUUUAUUGGGACUAAGAAUAAGAAGGGCGAUGAA [JR_Ex5_Sub004] (Eterna round: R97, puzzle: Exclusion 5) |  | 21 nM | 17.8 nM | 
12 | GUUUAGUGAGGAUAUGUGGCUUCGAUCGUGCGCGGUCUGCUACAGAAGGCACAUGAGGAUCACCCAUGUUCCUC [salish99_ex4_r4_308] (Eterna round: R97, puzzle: Exclusion 4) |  | 579 nM | 123 nM | 
13 | GGCGGACAUGAGGAUCACCCAUGUCAGGAUAUUAGGCGAUCGUCGAUAGACGAUAGCCUGAGAAGGGACGCGCC [Mat - Exclusion 1 - Eli Mod - D13] (Eterna round: R97, puzzle: Exclusion 1) |  | 18.6 nM | 17.7 nM | 
14 | UUUUAGAGAGGAUAUAUAAAGUGAAACAUGAGGAUCACCCAUGUAAUUUUAUGGAUGUAAAUAGAAGGCUCAUUUU [Mat - Exclusion 5 - JL mod - D2] (puzzle: Exclusion 5) | 34.2 nM |  |  | apparent KD of MS2 coat protein [2]: 27.8 nM; apparent KD of MS2 coat protein [3]: 34.7 nM
15 | AAAAAACAAGGAUAUACGUAUGAGGAUUGUCUUAAUUUUUGACAUGAGGAUCACCCAUGUAGAAGGUGUUAAAA [JR_Exclusion2_Sub015] (puzzle: Exclusion 2) | 94.9 nM |  |  | 
16 | CUGCUCCGUGUAGGAUAUGCAUACUCCCAUUAUGCAGAAGGACAUGAGGAUCACCCAUGUAUGUUAUUAUCACGUGUAGCGUAC [Design 15] (Eterna round: R96, puzzle: Exclusion NG 1) |  | 104 nM | 29.9 nM | apparent KD of MS2 coat protein [4]: 21.2 nM
17 | AGCAGACGAGGAUAUAAAUGAUAUAACAUGAGGAUCACCCAUGUACGAUCGAAUGAUCGUUUAGAAGGCGUCUGCU [E5/11-A1] (Eterna round: R97, puzzle: Exclusion 5) |  | 16.5 nM | 16.3 nM | 
18 | AUUUAGCAAGCCUGAUCCUACAUGAGGAUCACCCAUGUAGUUCGUCUUAUUUGAAGACAACACAAAAGUGUUGUCUU [Omei Mir OFFv1 B7] (Eterna round: R97, puzzle: Sensor, turn-off variant 1) |  | 18.3 nM | 18.5 nM | 
